Test [1] relates to mouse PCSK9 gene. Briefly: In vivo editing of PCSK9 in muscle tissues via AAV9-4A delivery of CasPhi.12 and CasM.265466 variants, indels by NGS. Set-up: species or system C57BL/6J mice. The conditions noted are these: for inducing indels in vivo at the PCSK9 locus across different muscle tissues: summary in words. The text has this:
The purpose of the study was to assess the capability of two effector protein variants, CasPhi.12 L26R (a variant of CasPhi.12) and CasM.265466 D220R (a variant of CasM.265466), to edit nucleic acid sequences within muscle tissues in vivo. The study focused on PCSK9 as an exemplary gene target.
In this study, an AAV9-4A vector was employed as the delivery vehicle for introducing the effector protein and gRNA into the specific target tissues. The DNA encoding the effector protein (e.g., SaCas9, CasPhi.12 L26R, or CasM.265466 D220R) and its corresponding promoter (e.g., ck8e or spc5), along with the DNA encoding the gRNA containing the targeting spacer sequence specific to PCSK9 (referred to as PCSK9 in the plasmid) and its u6 promoter were cloned into the AAV9-4A plasmid between the AAV inverted terminal repeats (ITRs), creating AAV9 constructs as follows: • 1) pssAAV-ITR-u6-PCSK9-ck8e-saCas9-bGHpolya-ITR (PL26295) • 2) pssAAV-ITR-u6-PCSK9-ck8e-L26R-wpre-hGHpolya-ITR (PL26297) • 3) pssAAV-ITR-u6-PCSK9-spc5-12-L26R-wpre-hGHpolya-ITR (PL31718) • 4) pssAAV-ITR-u6-PCSK9-ck8e-D220R-wpre-hGHpolya-ITR (PL31719) • 5) pssAAV-ITR-u6-PCSK9-spc5-12-D220R-wpre-hGHpolya-ITR (PL31720) • 6) pscAAV-ITR-u6-PCSK9-Spc5-12-D220R-HSVpolyA-ITR (PL31721)
The sequences of the gRNA designed for use in conjunction with SaCas9, CasPhi.12 L26R, or CasM.265466 D220R for targeting the mouse PCSK9 gene are provided in TABLE 14.
6-week old male C57BL/6J mice were given a single intravenous (IV) bolus through the tail vein using a 1.0 cc syringe with a 27G-⅝″ needle or a single intramuscular (IM) bolus into the gastrocnemius.
4 weeks after the treatment, the mice were euthanized for assessment. Before collecting the tissues, the mice underwent whole-body perfusion via the left ventricle using 5.0-10.0 mL of PBS to remove any remaining blood from the tissues. Tissue samples weighing 100 mg were then dissected from the liver, heart, gastrocnemius, diaphragm, pectoral, and masseter, respectively, and placed on a plate for subsequent Next-Generation Sequencing (NGS) analysis. For the intramuscular (IM) groups, both the left and right gastrocnemius were weighed and harvested. For all other groups, only the left gastrocnemius was weighed and harvested.
The genomic DNA isolated from the muscle tissues was subject to NGS and aligned to a reference DNA sequence for the analysis of insertions or deletions (indels).

The test system of test [2] is DMD. Briefly: DMD exon precise editing in HEK293T cells with CasPhi.12 engineered variant, MCP-RT and retRNA, Amplicon Sequencing. It counts as cell-based, human. The following applies: MCP-RT SEQ ID NO: 1608, retRNA SEQ ID NO: 1590, guide SEQ ID NO: 1327, 72 hours. Here is the method:
HEK293T cells were transfected with plasmids encoding effector protein CasPhi.12 L26R, I471T, S223P, D703G (SEQ ID NO: 1607), a reverse transcriptase (RT) (SEQ ID NO: 1608), a retRNA (SEQ ID NO: 1590), and a guide nucleic acid targeting DMD (SEQ ID NO: 1327). The effector protein was not linked to the RT, but the RT was fused to an MS2 coat protein (MCP) capable of binding an MS2 aptamer loop in the retRNA. Cells were harvested 72 hours later and cell lysates were prepared for Amplicon Sequencing. The percentage of reads containing precise edits were analyzed.

B1: CasPhi.12 L26R: variant of CasPhi.12, SEQ ID NO: 1603; delivered encoded in AAV9-4A vectors PL26297 or PL31718 (protein)
chain: MIKPTVSQFLTPGFKLIRNHSRTAGRKLKNEGEEACKKFVRENEIPKDECPNFQGGPAIANIIAKSREFTEWEIYQSSLAIQEVIFTLPKDKLPEPILKEEWRAQWLSEHGLDTVPYKEAAGLNLIIKNAVNTYKGVQVKVDNKNKNNLAKINRKNEIAKLNGEQEISFEEIKAFDDKGYLLQKPSPNKSIYCYQSVSPKPFITSKYHNVNLPEEYIGYYRKSNEPIVSPYQFDRLRIPIGEPGYVPKWQYTFLSKKENKRRKLSKRIKNVSPILGIICIKKDWCVFDMRGLLRTNHWKKYHKPTDSINDLFDYFTGDPVIDTKANVVRFRYKMENGIVNYKPVREKKGKELLENICDQNGSCKLATVDVGQNNPVAIGLFELKKVNGELTKTLISRHPTPIDFCNKITAYRERYDKLESSIKLDAIKQLTSEQKIEVDNYNNNFTPQNTKQIVCSKLNINPNDLPWDKMISGTHFISEKAQVSNKSEIYFTSTDKGKTKDVMKSDYKWFQDYKPKLSKEVRDALSDIEWRLRRESLEFNKLSKSREQDARQLANWISSMCDVIGIENLVKKNNFFGGSGKREPGWDNFYKPKKENRWWINAIHKALTELSQNKGKRVILLPAMRTSITCPKCKYCDSKNRNGEKFNCLKCGIELNADIDVATENLATVAITAQSMPKPTCERSGDAKKPVRARKAKAPEFHDKLAPSYTVVLREAV
With B1, the “indel rate in the PCSK9 gene” value in test [1] (heart, PL26297 vector, IV administration, 4 weeks after treatment) is “about 8%”; in test [1] (heart, PL31718 vector, IV administration, 4 weeks after treatment), “about 8%”; in test [1] (masseter, PL26297 vector, IM administration, 4 weeks after treatment) it was “about 3%”; in test [1] (right gastrocnemius, PL26297 vector, IM administration, 4 weeks after treatment), “about 5%”. For the same molecule, the “inducing indels in vivo at the PCSK9 locus across different muscle tissues” value in test [1] was “highly efficient”.

B2: CasPhi.12 L26R, I471T, S223P, D703G: CasPhi.12 engineered variant, SEQ ID NO: 1607 (protein)
chain: MIKPTVSQFLTPGFKLIRNHSRTAGRKLKNEGEEACKKFVRENEIPKDECPNFQGGPAIANIIAKSREFTEWEIYQSSLAIQEVIFTLPKDKLPEPILKEEWRAQWLSEHGLDTVPYKEAAGLNLIIKNAVNTYKGVQVKVDNKNKNNLAKINRKNEIAKLNGEQEISFEEIKAFDDKGYLLQKPSPNKSIYCYQSVSPKPFITSKYHNVNLPEEYIGYYRKPNEPIVSPYQFDRLRIPIGEPGYVPKWQYTFLSKKENKRRKLSKRIKNVSPILGIICIKKDWCVFDMRGLLRTNHWKKYHKPTDSINDLFDYFTGDPVIDTKANVVRFRYKMENGIVNYKPVREKKGKELLENICDQNGSCKLATVDVGQNNPVAIGLFELKKVNGELTKTLISRHPTPIDFCNKITAYRERYDKLESSIKLDAIKQLTSEQKIEVDNYNNNFTPQNTKQIVCSKLNINPNDLPWDKMTSGTHFISEKAQVSNKSEIYFTSTDKGKTKDVMKSDYKWFQDYKPKLSKEVRDALSDIEWRLRRESLEFNKLSKSREQDARQLANWISSMCDVIGIENLVKKNNFFGGSGKREPGWDNFYKPKKENRWWINAIHKALTELSQNKGKRVILLPAMRTSITCPKCKYCDSKNRNGEKFNCLKCGIELNADIDVATENLATVAITAQSMPKPTCERSGDAKKPVRARKAKAPEFHGKLAPSYTVVLREAV
Turning to B2, in test [2], the “precise editing, average (percentage of reads containing precise edits)” value came to 1.6% and the “precise editing, one replicate” value is on record as 2.1%.

B3: CasM.265466 D220R: variant of CasM.265466, SEQ ID NO: 1602; delivered encoded in AAV9-4A vectors PL31719, PL31720, PL31721 (protein)
chain: MSVLTRKVQLIPVGDKEERDRVYKYLRDGIEAQNRAMNLYMSGLYFAAINEASKEDRKELNQLYSRIATSSKGSAYTTDIEFPTGLASTSTLSMAVRQDFTKSLKDGLMYGRVSLPTYRKDNPLFVDVRFVALRGTKQKYNGLYHEYKSHTEFLDNLYSSDLKVYIKFANDITFQVIFGNPRKSSALRSEFQNIFEEYYKVCQSSIQFSGTKIILNMAMRIPDKEIELDEDVCVGVDLGIAIPAVCALNKNRYSRVSIGSKEDFLRVRTKIRNQRKRLQTNLKSSNGGHGRKKKMKPMDRFRDYEANWVQNYNHYVSRQVVDFAVKNKAKYINLENLEGIRDDVKNEWLLSNWSYYQLQQYITYKAKTYGIEVRKINPYHTSQRCSCCGYEDAGNRPKKEKGQAYFKCLKCGEEMNADFNAARNIAMSTEFQSGKKTKKQKKEQHENK
Consider B3, for which the indel rate result in test [1] (diaphragm, PL31719 vector, IV administration, 4 weeks after treatment) is given as “about 10%”; in test [1] (heart, PL31719 vector, IV administration, 4 weeks after treatment) it was “about 20%”; in test [1] (heart, second statement ('Additionally'), vector PL31719, IV administration), “about 11%”; in test [1] (left gastrocnemius, PL31719 vector, IV administration, 4 weeks after treatment), “about 15%”; in test [1] (left gastrocnemius, second statement ('Additionally'), vector PL31719, IV administration), “about 10%”; in test [1] (liver, PL31719 vector, IV administration, 4 weeks after treatment), “about 25%”. Moreover, the indel rate entry in test [1] (masseter, PL31719 vector, IV administration, 4 weeks after treatment) was “about 5%”; in test [1] (pectoral, PL31719 vector, IV administration, 4 weeks after treatment) it was “about 13%”; in test [1] (pectoral, second statement ('Additionally'), vector PL31719, IV administration), “about 3%”. In addition, the “fold greater indel rate in the heart compared to SaCas9” value in test [1] (heart, versus SaCas9 delivered in the PL26295 vector via IV administration) is on record as “approximately 2 fold”. Moreover, the “inducing indels in vivo at the PCSK9 locus across different muscle tissues” value in test [1] is “highly efficient”.

Values taken from patent US20260097134A1, “COMPOSITIONS AND METHODS FOR PRECISE EDITING OF HUMAN DYSTROPHIN” (Mammoth Biosciences, Inc., priority 2023, published 2026).
